Measured values: the DeepSol protein solubility set

Test: soluble on expression in E. coli; label from the status in PepcDB or PDB records

Soluble on expression in E. coli, not soluble:
MAGRVPRLTGHCSILSRTYGHSLMDLAALRFYIAPGKKPVIAAGMPWYMALFGRDSLITSYQCCFIAPDIAFNTLRNLANLQGKEYNYFKDEEPGKILHELRFGEKTLLGKKPYSPYFGSADTCQLFLILLHEVFKWTGNKEFVNEFKEPALKALYWIDNFGDMDGDGYVEYKKRSKEGLDNHCWKDSGTSMIFSDSRLAEAPIATVEFQGYIYDAKIRLAELAEEVWDDPSFAEELRNQAKELKRRFNRDFWIEDRGGYFALGLDKNKEKIDSMTSNMGHLLWSGIVEDDRAGIIVKQLMSRDLYNGWGIRTLSSHDRGYNPIEYHNGTVWPHDNSLIAEGFIKYGYRDEANRIITNLLEASQYFDSRFPEVFAGYQRTEVDFPVSYPTSSIPQAWAAGASMLFLRLILGLEPDRKSQSIKIDPYLPQVIEDICVENIRLFNKKFSVFAGKGRSEIKLSEMAGDPLEHHHHHH
MIPVERHQQILALIAERGAVSINELTERLGVSHMTVRRDVQKLEQDGLLLSVSGGVRSPERLATEPSHQDKSVMFSQQKAAMGKLAAQHIPLNSCIYLDAGTTTLSLARELAERDDLLIVTNDFAIAAFLIESSQCRMIHTGGTLCRENQSCIGEAVAQALRNLFIDIAFISASSWSLRGLSTPNEDKVVVKRAAVEASRKRVLLCDTSKYGRIATHLATPLDVFDSIITDDGLPVAAKEALSKMGVEVLVAG
MSLIISELRHEHALRDLLRAAGMSRSTWYYNMNALKQGDRYAGLKENIRKIYHYHKGRYGYRRITLALRKQGLRINHKTVQRLMAELSLRSVIRAKKYRAWKGRTGEAAPNILSRNFGASKANEKWVTDVTEFPVQGKKLYLSSVLDLFNREVIAYSLSERPVMEMVNTMLDGAFPKLRPGDAPLLHSDQGWHYRMRSYQERLKAHGMTQSMSRKGNCLDNAVMENFFGTLKSECFYLREFRSVSALRKAVEDYIHYYNNERISLKLKGLSPVEYRTQALRAAEGHHHHHH
MGKQLAKKITWAIENFSSLHSKKIYSDPFIVGGCKWRFLVYPKGNNVDYLFLYLEVADYESLSPEWRRHARYLLNVVNQNSVKRSKQNEEQKWFDVQSPRWGRLSMFPLNEINAKDSGFLVNGELKIVAEIEVLEVIGKLDVSEETSTIMESMDFNGFQLLPSQVDFVRHMFEKHPEIASEFRLKNPNLRAGYMSLLLSLIETLRQSPQELNKVDLAEGYVALRSITDAGFKVDWLEKKLVEISEKKNKEEAGETRMQEINEELESLKQKCLDLEAQLEKEKAEVFAAKSPLSFNDVF
MKEVLRVRTTKHTSIVNITQQVDQVVKKSGVREGICVVYTPHTTACVFVNEGADPDVVRDIVYSLEKLIPWNDPSYAHMEGNSAAHIRSAIIGNSRVIPIIDGELALGTWESIFLADFDGPRERKVIVVVLGEKLEHHHHHH
MKKEHLKFVIDSRCFRGSCVTSMSDGIHCDYYGSTLEELKKQENNPFLVAVTRNAIHKRSRIHDKSLCRPFREITEENYYNCMNELPPVRLKHHSFFFGEPYHGSLYMFCFTIGKRFFRGLRPVMTPQAELERQMNEHYHNITFKGKVTKGKAERITSKDKQEIITIPYSFTDKENRERFICNMVTGGNDGGDTCKARKDMTNILLSLRKHHFLYFSGYGRHDDMETLLDEVEEKRYTIITSGCLFQFPPCRDSVSFTGSVKETGENFFYRIYDRELFLHIMHRLRAVKREKTPAEAKAVLPKCKCYE
MSLAAENILQRQFKAEAPCEKWVTDITEFRAGGQKLYLSPILDLFYGEIVAWETACRPTEELVKRMLNKGLESLAEGEKPLLHSDQGWHYRIKSYQSALADRGLVQSMSRKGNSLDNAVMENFFGHLKEEMYYRRDYRNVEELENAVNEYITYWNQKRIKLSLGGLSPVEYRTEYQKAGEGHHHHHH
MKKQKSFPMSAYEDLLGKITAPTITVENWEGILAFCDMINNDFEGSKTGIKSLRKRLNNRDPHVVLLAISVLDSCWANCEERFRKEVSSAQFINELKALCTSSQRQVAEKMRLTVQKWVDTECKTEQSLSLIVTLHKNLVADGYSFVVDDPKSKTKAIDAKFANDPNYVGSAQEEEAIAKAIAASLADAEKQEKAKKSTSTMYPSAKASSPAVQTNSNIPEKNVRALYDFEAAESNELSFVAGDIITITDESNPHWWTGRIGTQQGLFPSSFVTNQLDDLKSKETDSSQKAPEVVASINEAILVRCLQVLHECDPTGERQDPEDLAQLEAASYAQGNLIDAHLASIDRQSNSLAQIDVAIRDVLALYDDAIQKGGFQHQSQGMYQQPMQQYNYQQPPNRAYYPPTGPVQQQQPQQYPPQHYPAPGAQPQYACPPNSVPQPQQQQQQWPAPSSQPQQY
MKEKIPFYNEKEFHDMVKKTKKGTFSGWYIINKNNNSVEFSGSFNRQFKLNKPVIPVNTEYVTRKEFNEYKDSNDQRLTKIETELKSQGQRIQVVEDKVDRLTEVVMVQSQQIKTQGEAMNARMDRFESLVLKSLESIGNTLTDFGKRLDVIETRLDKIDPPKLEHHHHHH
MGSDKIHHHHHHMRYSICYTPSARDPLSLAAASWLGRNVYSDEPVEHPGLAGLGLHEIAFHTALPRRNGFHGCLKAPFALHPEVSEAQLLRELMHFAGIVEPFALPGLEVAKLGDFCGLTLTHPSNQLDRVAALVVQNFDRFRAPLSDAEIERMAPERLSAPQFANLYRWGDPHVLDEYRFYMPLTGPLPLSHRDRLHQAATHYFAPLLQNPVVFANLALFIEREPGAPLVVHSLHPMGRVSARKIA
AGCEGLRIGQSALQARLSDQIDKLTQAEQHANQMLIDVRSRNHDTMKHITAIKSAQPKADTQAYIQNWADQYSQYDRFLKGENAYVAGVLYDFLEKARASNVSVSLHMHTPLSSLPFSPADQVSLVGNILENALDSAAEAREKAEIKLETSLRSGLYVLTCENSTPGMDPKVLDTIYQSFGRSTKNGAHEGMGTYIIQKLVKGAFGRLDFTYRHPIFRLEIKIPFQ

Soluble on expression in E. coli, soluble:
MVAATSQNTFDSPRSPLYNFTMDIRPLSDVAGVILVGGRSRRMGRDKALIPLGGKPLVERVIDAFRPLFERILLVGDRGERFASYGLPVFPDIHPGSALGGLYTGLVRAGTPHVFVSACDVPWPDPRVIARLCSLREGFDVVVPRTVGGSEPLFAVYGTGCLPAMERMLREGNYRIYDFYPEVRTRYVEQAELADLVTPARTFVNVNTPEEFETIRNREEGMAIKAVSFVAKSGTGKTTLLEKVIAELKGRGYRIGVIKHDAHRFDIDHPGKDSHRLAAAGADTMLIASPEKLALVKKYDESPPLDELLATYFGDVDIVLTEGFKKSSLPKIEVHRMERSATLLCRGEEHDPTLVAVASDAALALDVPVFDLNNPAQVADFVERTFLAAGAALEHHHHHH
MKKHHHHHHEDFHGIDIVINHRLKTSLEEGKVLEKTVPDLNNCKENYEFLIKWTDESHLHNTWETYESIGQVRGLKRLDNYCKQFIIEDQQVRLDPYVTAEDIEIMDMERERRLDEFEEFHVPERIIDSQRASLEDGTSQLQYLVKWRRLNYDEATWENATDIVKLAPEQVKHFQKK
MRITLVDHPLVQHKLAHLRDKRTGPKDFRELAEEVAMLMAYEAMRDLELEETTVETPIAPARVKVLSGKKLALVAILRAGLVMVEGILKLVPHARVGHIGLYRDPESLNPVQYYIKLPPDIAERRAFLLDPMLATGGSASLALSLLKERGATGVKLMAILAAPEGLERIAKDHPDTEVVVAAIDERLNDHGYIVPGLGDAGDRIYGTK
SSNAKADQASSDAQTANAKADQASNDANAARSDAQAAKDDAARANQRADNAA
MGHHHHHHGGHMSLTSALPRPAPSPYARRKTALVIGAGFGGLALGIRLQSLGFDTTILERLDGPGGRAYQKRTPDGYVFDMGPTVLTVPHFIEELFALERDRAGLDAPDYPPEVLSGERVKEGVSGGPHTSRYVTLVPILPFYRIVFHDGTYFDYDGDPESTRRQIAELAPGDLAGYERFHADAEAIFRRGFLELGYTHFGDVPTMLRVVPDLLKLDAVRTLFSFTSKYFQSDKLRQVFSFETLLVGGNPLSVPAIYAMIHFVEKTWGIHYAMGGTGALVRGLVQKFEELGGAIRYGAGVDEVLVDGNLPGKRTARGVRLESGEELRADLVASNGDWANTYLKRVRPSARLVNSDLRVKAASESMSLLVVYFGFRGGDDLPLKHHNILLGPRYEALLSEIFGTKRLGEDFSQYLHVPTLTDPALAPAGHHAAYTLVPVPHNGSGIDWDVEGPKLAEAALADIERRGLIPGLRERLTHFEFITPDYFAGTLDSYLGNAFGPEPRLVQSAFFRPHNRSEDLHNFYLVGAGAQPGAGTPSVMMSAKMTARLIAEDFGIHADIREGGS
MSLTEKCVIKIGGSVLKDGSSLPRVMDIISHFRSPILVVSAFGGITDALYRFYEYDESRMDKLRDLLLMHLGILWKYNIEAHPEISIQDSSILDQDAYVSYGEKMSAFTLARFLTGNGIPAAPIYTDEAGLIVEEISKERTVDLEGSRAFFENIARVETSGKVPVVTGFFGIDRYGKTRILGRNSSDYSAVAVAAILGIREVILIKDVPGIYMNLEDRTSIVNRIDYETALRIVDRGSKVVHRAALRLAMKMGMNLLITSPENLESGTVIGDLFEGHHHHHH
GMLSNLESSIQSPKSGEYQCLAALNLYDSPECTSLATQAAVGRHLQVTSNQQGAAVEVCLCEDDYPGWLSLGDLGLLKPATVLYQAKSFSESEIKKLLPGAIAFTQKAMQQSNYYLWGGTVGPNYDCSGLMQAAFVSVGIWLPRDAYQQEAFTQAITIDELAPGDLVFFGTPVKATHVGLYLGDGCYIHSSGKAQGRDGIGIDILSEQGDVVSRSYYQQLRGAGRVVKSYKPQRH
PGRPTMMISTTAMNTALLQWHPPKELPGELLGYRLQYCRADEARPNTIDFGKDDQHFTVTGLHKGTTYIFRLAAKNRAGLGEEFEKEIRTPEDL
RKQDTQRALHLLEEYRSKLSQTEDRQLRSSIERVISIFQSNLFQALIDIQEFYEVTLLDN
MSLNSKDIAKIVGVSRSTVSRVINNYPDIPQATREKVLKAIKEYNYYPNASARRLAGMKSSTLGIFIIDIKDNEKPHHVIENNEDLLYGNSYFSPFINAFIDQSNKAQYHVLVSTIYSSDELWKIQSAFYEKRIDGAVIIGSSSIDYSKIFEIMDKDSITVAVDLDMEKENTGTVMSVNINNYGGVSDAIDYLVELGHKDIAVITGDLNKLSGKIRFESFKDALLRHGLPLNNDFIAYGDFTENSGYEGMKKILASGKKPTAVFTSNDTMAIGAYRAIKEYGLKIPEDISVMGFDNSYISQYMSPPLTTVNVSLPEIAKCSIELLLDSINNKEIKNRQKTVNVQIVKRNSCKKEGHHHHHH
MSLHRISDRFPVHVVVWPVKVQGEGSGEEVANAIRGFNALKPGGDIARPDVLIVARGGGSLEDLWSFNDEIVVRAAAESEIPLISAVGHETDTTLIDYAADVRAPTPTGAAEMAVPVRAELEAQLSGLAARLSGSVSRQMDNRRQGVRALVRALPSLDQLLALPRRRFDEAASGLGRGLELTTLNKRRAFERSASGLRPETLLNGLKHHRQRITERMHRAETLVEREGHHHHHH
SFRMLSSSFEDDPFFADSFLAHRESMRNMMRSFSEPLGRDLLSISDGRGRTHNRRERDDGEDSLTATSFSLVPFGRFGGMHADVNPFQTMDRMMANMRSGIQELQRNFGQLSMDPNGHSFCSSSVMTYSKVGDEPPKVFQASTQTRRAPGGVKETRKAMRDSDSGLERMAVGHHIHDRGHVIRKSKNNKTGDEEVNQEFINMNESDAHAFDDEWQNEVLKYKSIGRSGNTGMRSVGHEHPGSRELKRREKIHRNSAIESGRRSNVFVDKLNVKGSPVKITKK
